# Measured values as given in patent US20250009852A1, “DEPLETING EGFR AND HER2 OVERCOMES RESISTANCE TO EGFR INHIBITORS IN COLORECTAL CANCER” (Health Research, Inc., priority 2021, published 2025).
# What was measured:
# [1] = Monitoring of mice for signs of adverse effects; assay type: in vivo; conditions: mice bearing HCT116 or HT29 tumors; aderbasib alone or the combination regimen
# Procedure: SCID mice (C.B.17 SCID) were bred by the Laboratory Animal Shared Resource at Roswell Park Comprehensive Cancer Center. Male mice at 7-8 weeks of age were used. All mouse experiments were approved by the Institutional Animal Care and Use Committee at Roswell Park Comprehensive Cancer Center under protocol 1022M. We established subcutaneous tumors by inoculating 1×10^6 HCT116 cells, 4×10^6 HT29 cells, or 2×10^6 SW48 cells to the flank of each mouse in 100 μl of serum free medium. Colon patient-derived xenograft (PDX) 14650 was established from a liver metastatic lesion in a patient treated at Roswell Park Comprehensive Cancer Center. Tumor fragments (˜20 mm^3) from donor mice were implanted into the flank of each mouse subcutaneously using a trocar. […] Subcutaneous tumor volume was measured using length ×width^2÷2. Tumor volume was measured three times each week. Orthotopic tumor growth was monitored by bioluminescence weekly. Mice were given D-luciferin (150 mg/kg) by ip and anesthetized with isoflurane, and tumor burden was measured by bioluminescence using the IVIS Spectrum In Vivo Imaging System (PerkinElmer). Drug treatment was started when significant tumor growth was detected. […] The mice were closely monitored for sign of adverse effects and weighed three times each week. […]
# HT29 cells = assay: MTT cell proliferation assay; assay type: cell-based, human; conditions: 24, 48 or 72 h, PEPD^G278D 5-250 nM, cetuximab 2.75-275 nM, panitumumab 2.77-277 nM
# Procedure: (§1) Cells were grown in 96-well plates. […] The cells were then washed with PBS and mixed with dimethyl sulfoxide (150 μl per well), and cell density was determined by measuring the reduction of MTT to formazan spectroscopically at 570 nm using a Synergy 2 Multi-Mode Microplate Reader (BioTek). In experiments involving siRNA transfection, 2×10^3 HCT116 cells or 6×10^3 HT29 cells were seeded to each well of 96-well plates overnight and then transfected 25 nM siRNA (scramble siRNA, EGFR siRNA or HER2 siRNA) as described above, followed by MTT assay.
# SW620 cells = assay: MTT cell proliferation assay; assay type: cell-based, human; conditions: SW620 cells (no EGFR, no HER2); 24, 48 or 72 h
# Procedure: as §1
# SW48 cells = assay: MTT cell proliferation assay; assay type: cell-based, human
# Procedure: as §1
# HCT116 cells = assay: MTT cell proliferation assay; assay type: cell-based, human; conditions: 24, 48 or 72 h, PEPD^G278D 5-250 nM, cetuximab 2.75-275 nM, panitumumab 2.77-277 nM
# Procedure: as §1
# EGFR and HER2 = assay: Western blotting of whole cell lysates: EGFR and HER2; assay type: cell-based, human; conditions: 25 nM
# Procedure: To prepare whole cell lysates, cells were washed with PBS twice, mixed with 1× cell lysis buffer from Cell Signaling Technology supplemented with 2 mM PMSF and a protease inhibitor cocktail from Roche Applied Science, placed on ice for 10 min, sonicated at 0-4° C. to enhance cell lysis using a Branson Model 450 sonifier, and finally centrifuged at 13,000 g for 10 min at 4° C., and the supernatant fraction is collected as whole cell lysate. Tumor and samples were mixed with RIPA buffer (25 mM Tris-HCl, PH7.6, 150 mM NaCl, 1% Nonidet P-40, 1% sodium deoxycholate, and 0.1% SDS), which was supplemented with 2 mM PMSF, the protease inhibitor cocktail mentioned above, phosphatase inhibitor cocktail 2 and phosphatase inhibitor cocktail 3 from Sigma-Aldrich at 14.3 μl buffer per mg tissue, and homogenized in a Dounce homogenizer. The homogenates were cleared by centrifugation at 13,000 g for 15 min at 4° C.
# Protein concentrations in all samples were measured using the BCA Assay Kit. For Western blotting, each sample was mixed with 4× loading dye, heated for 5 min at 95° C., and resolved by SDS-PAGE (8-12.5%). Proteins were transferred to polyvinylidene fluoride membrane, probed with specific antibodies, and detected using either Luminata Classico (Millipore) or Luminata Cresendo (Millipore). For IP, cell lysates (0.5 mg protein/sample) were incubated with a desired antibody overnight at 4° C., followed by incubation of 500 μl sample with 30 μl G-Sepharose beads (2 mg/ml) for 1 h at RT. The beads were washed three times with IP buffer, suspended in 2× SDS loading buffer, boiled for 5 min, and analyzed by Western blotting.
# EGFR = assay: Immunofluorescence staining and confocal microscopy of EGFR trafficking in SW48 cells; assay type: cell-based, human; conditions: serum-free medium, 25 nM, up to 6 h
# Procedure: SW48 cells were grown in chamber slides (4×10^4 cells/well) overnight with or without subsequent treatment with PEPD^G278D (25 nM) and/or chloroquine (25 μM) for up to 6 h. The cells were then washed with ice-cold PBS, fixed with 4% paraformaldehyde for 20 min at room temperature (RT), washed again with ice-cold PBS and blocked with 1% BSA in PBS for 1 h at RT. The cells were then incubated with an EGFR antibody, a His tag antibody for detection of PEPD^G278D, and/or a LAMP1 antibody overnight at 4° C., washed with PBS, incubated with a secondary antibody conjugated to Alexa-Fluor 488 or Alexa-Fluor 647 antibody for 1 h at RT and washed again with PBS. The cells were then examined with a BZ-X700 fluorescence microscope (Keyence) with a S PL FL ELWD ADM 40xC objective. Merged images from Z-stack were organized using the ImageJ software (NIH Image).
Molecule,signs of toxicity [1],cell growth measured by MTT assay (HT29 cells),cell growth measured by MTT assay (SW620 cells),growth-inhibitory potency compared with the EGFR MABs (SW48 cells),"cell growth measured by MTT assay (SW48 cells; 24, 48 or 72 h, PEPD^G278D 5-250 nM, cetuximab 2.75-275 nM, panitumumab 2.77-277 nM)",cell growth measured by MTT assay (HCT116 cells),"HER2 level (EGFR and HER2; HCT116, HT29 and SW48 cells, medium with 10% serum, 3 h)","expression and tyrosine phosphorylation of EGFR and HER2 (EGFR and HER2; SW48, HCT116 and HT29 cells, 48 h)","EGFR and HER2 level (EGFR and HER2; serum-free medium, 3 h)",EGFR internalization and lysosomal degradation (EGFR)
COC(=O)N1CC2(CC2)C[C@H](C(=O)NO)[C@H]1C(=O)N1CC=C(c2ccccc2)CC1 [aderbasib],did not show signs of toxicity,,,,,,,,,
"PEPD^G278D: recombinant and enzymatically inactive mutant of human peptidase D (PEPD), with replacement of glycine 278 by aspartic acid (protein, left off: small tags and cut ends) AAATGPSFWLGNETLKVPLALFALNRQRLCERLRKNPAVQAGSIVVLQGGEETQRYCTDTGVLFLQESFFHWAFGVTEPGCYGVIDVDTGKSTLFVPRLPASHATWMGKIHSKEHFKEKYAVDDVQYVDEIASVLTSQKPSVLLTLRGVNTDSGSVCREASFDGISKFEVNNTILHPEIVESRVFKTDMELEVLRYTNKISSEAHREVMKAVKVGMKEYGLESLFEHYCYSRGGMRHSSYTCICGSGENSAVLHYGHAGAPNDRTIQNGDMCLFDMDGEYYSVASDITCSFPRNGKFTADQKAVYEAVLLSSRAVMGAMKPGDWWPDIDRLADRIHLEELAHMGILSGSVDAMVQAHLGAVFMPHGLGHFLGIDVHDVGGYPEGVERIDEPGLRSLRTARHLQPGMVLTVEPGIYFIDHLLDEALADPARASFLNREVLQRFRGFGGVRIEEDVVVIDSGIELLTCVPRTVEEIEACMAGCDKAFTPFSGPK",,strongly inhibited the growth,ineffective,more potent,strongly inhibited the growth,strongly inhibited the growth,decreased markedly,obliterated,marked decrease,induces EGFR internalization and lysosomal degradation
